Experimental data: patent US20220098305A1 (Hoffmann-La Roche, published 2022)
Blank lines part the entries; values can stand above or below the binder they belong to.

Legend:
[1] = biological target: T1, human FAP (human, UniProt Q12884 1-760); assay: flow cytometry, NIH/3T3-huFAP clone 19 cells
T1 construct: also called hu FAP

[2] = biological target: T1, human FAP; assay: flow cytometry on NIH/3T3-huFAP clone 19 cells, geometric MFI
[3] = biological target: T2, human ICOS (human, UniProt Q9Y6W8 21-199); assay: flow cytometry, SR cells
T2 construct: The cell that carries it is named under assay; also called huICOS; CD278
T2 sequence: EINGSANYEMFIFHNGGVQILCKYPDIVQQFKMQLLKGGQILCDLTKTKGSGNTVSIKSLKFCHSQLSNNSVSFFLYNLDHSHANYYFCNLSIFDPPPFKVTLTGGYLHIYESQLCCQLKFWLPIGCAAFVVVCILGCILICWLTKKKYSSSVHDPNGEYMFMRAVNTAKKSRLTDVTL

[4] = biological target: T2, human ICOS; assay: flow cytometry on SR cells expressing human ICOS, geometric MFI
[5] = biological target: T2, human ICOS; assay: flow cytometry, ICOS+ CHO cells, 120 nM anti-ICOS IgG, no ICOSL
Procedure: (§1) Briefly, cells were harvested, counted, checked for viability and re-suspended at 1 million cells per ml in FACS buffer (PBS with 0.1% BSA). […] Cells were washed again twice with cold PBS 0.1% BSA and then re-incubated and fixed for 20 min at 4° C. in the dark, using 75 μl of 1% PFA in FACS buffer per well. Fluorescence was analyzed by FACS using a FACS Fortessa (Software FACS Diva. Data was analyzed using GraphPadPrism 7.

[6] = biological target: T3, recombinant monomeric human ICOS Fc(kih) Avi tag (human, UniProt P0DOX5 223-449 = IgG part, biotin on the Avi tag in the ligand-blocking and the SPR competition assays); assay: SPR (Biacore T200, 25 C), antibody captured on anti-rabbit Fc, ICOS Fc(kih) 7.5-600 nM as analyte, 1:1 Langmuir fit
T3 construct: also called recombinant human ICOS; biotinylated human ICOS Fc(kih)
Procedure: (§2) All SPR experiments were performed on a Biacore T200 at 25° C. with HBS-EP as running buffer (0.01 M HEPES pH 7.4, 0.15 M NaCl, 3 mM EDTA, 0.005% Surfactant P20, Biacore, Freiburg/Germany).
(§3) Setup 1: Anti-rabbit Fc antibody (Jackson ImmunoResearch, Cambridgeshire/UK) was directly coupled on a CM5 chip at pH 4.5 using the standard amine coupling kit (Biacore, Freiburg/Germany). The immobilization level was approximately 9000 RU. […] The dissociation was monitored for 720 seconds. Bulk refractive index differences were corrected for by subtracting the response obtained on reference flow cell.

[7] = biological target: T3, recombinant monomeric human ICOS …; assay: SPR competition on human ICOS Fc(kih); second injection 100 nM; competitor (row): Molecule 14
Procedure: (§4) Immobilization levels up to 600 resonance units (RU) were used. […] Bulk refractive index differences were corrected for by subtracting the response obtained on reference flow cell.
(§5) The SPR experiments were performed on a Biacore T200 at 25° C. with HBS-EP as running buffer (0.01 M HEPES pH 7.4, 0.15 M NaCl, 3 mM EDTA, 0.005% Surfactant P20, Biacore, Freiburg/Germany).

[8] = biological target: T2, human ICOS; assay: cell-based or functional assay
[9] = biological target: T3, recombinant monomeric human ICOS …; assay: SPR competition on human ICOS Fc(kih); second injection 100 nM; competitor (row): Molecule 8
Procedure: as §4, §5

[10] = biological target: T2, human ICOS; assay: flow cytometry on CHO cells stably expressing human ICOS, PE-labelled secondary antibody, median fluorescence intensity (MFI)
Procedure: (§6) Briefly, suspension cells were harvested, counted, checked for viability and re-suspended at 1 million cells per ml in FACS buffer (PBS with 0.1% BSA). […] The staining was fixed for 20 min at 4° C. in the dark, using 75 μl of 1% PFA in FACS buffer per well.
(§7) Fluorescence was analyzed by FACS using a FACS Fortessa (Software FACS Diva). Binding curves and EC50 values were obtained using GraphPadPrism 7.

[11] = biological target: T2, human ICOS; assay: flow cytometry, ICOS+ CHO cells, 120 nM anti-ICOS IgG pre-bound, then ICOSL (competitor) 120 nM
Procedure: as §1

[12] = biological target: T2, human ICOS; assay: flow cytometry on SR cells expressing human ICOS, PE-labelled secondary antibody, MFI
Procedure: as §6
(§8) In addition, binding of the above molecules to human SR cells (ATCC® CRL-2262) was performed as described above apart from the following modifications: SR cells were re-suspended at 2 million cells per ml in FACS buffer (BD).
as §7

[13] = biological target: T2, human ICOS; assay: flow cytometry, MFI(ICOSL+anti-ICOS)/MFI(anti-ICOS only)*100 at 120 nM; competitor ICOSL
Procedure: as §1

[14] = biological target: T2, human ICOS; assay: flow cytometry, SR cells; remark: listed apart in the source
Procedure: as §6, §8, §7

[15] = biological target: T3, recombinant monomeric human ICOS …; assay: SPR competition on human ICOS Fc(kih); second injection 100 nM; competitor (row): Molecule 20
Procedure: as §4, §5

[16] = biological target: T2, human ICOS; assay: flow cytometry, CHO cells expressing human ICOS
Procedure: as §6, §7

[17] = biological target: T3, recombinant monomeric human ICOS …; assay: SPR competition on human ICOS Fc(kih); second injection 100 nM; competitor (row): Molecule 18
Procedure: as §4, §5

[18] = biological target: T3, recombinant monomeric human ICOS …; assay: SPR (Biacore T200, 25 C), antibody captured on anti-mouse IgG, ICOS Fc(kih) 7.5-600 nM as analyte, 1:1 Langmuir fit
Procedure: as §2
as §3, with “2: Anti-mouse IgG” for “1: Anti-rabbit Fc”, “(GE Healthcare, Chicago/US)” for “(Jackson ImmunoResearch, Cambridgeshire/UK)”, “5.0” for “4.5”, “5000” for “9000”

EC50 [1]: 0.00385 nM | EC50 (read off the curve) [2]: ~4 nM | EC50 [3]: 0.00174 nM | EC50 (read off the curve) [4]: ~2 nM
B1: Molecule 40, bispecific 2+1 anti-ICOS (009)/anti-FAP (4B9) huIgG1 P329GLALA kih (bispecific antibody)
heavy 1: EVRLDETGGGVVQPGRPMELSCVASGFTFSDYWMNWVRQSPEKGLEWVAQIRNKPYNYETYYSDSVKGRFTISRDDSKSRVYLQMNNLRAEDMGIYYCTWPRLRSSDWHFDVWGAGTTVTVSSASTKGPSVFPLAPSSKSTSGGTAALGCLVKDYFPEPVTVSWNSGALTSGVHTFPAVLQSSGLYSLSSVVTVPSSSLGTQTYICNVNHKPSNTKVDKKVEPKSCDKTHTCPPCPAPEAAGGPSVFLFPPKPKDTLMISRTPEVTCVVVDVSHEDPEVKFNWYVDGVEVHNAKTKPREEQYNSTYRVVSVLTVLHQDWLNGKEYKCKVSNKALGAPIEKTISKAKGQPREPQVCTLPPSRDELTKNQVSLSCAVKGFYPSDIAVEWESNGQPENNYKTTPPVLDSDGSFFLVSKLTVDKSRWQQGNVFSCSVMHEALHNHYTQKSLSLSPGGGGGSGGGGSGGGGSGGGGSEIVLTQSPGTLSLSPGERATLSCRASQSVTSSYLAWYQQKPGQAPRLLINVGSRRATGIPDRFSGSGSGTDFTLTISRLEPEDFAVYYCQQGIMLPPTFGQGTKVEIK
heavy 2: not shown
light: AIQMTQSPSSLSASLGGEVTITCKASQDINKNIAWYQHKPGRGPRLLIWYTSTLQTGIPSRFSGSGSGRDYSFTISNLEPEDFATYYCLQFDNLYTFGSGTKLEIRRTVAAPSVFIFPPSDEQLKSGTASVVCLLNNFYPREAKVQWKVDNALQSGNSQESVTEQDSKDSTYSLSSTLTLSKADYEKHKVYACEVTHQGLSSPVTKSFNRGEC

MFI (A488), IgG only [5]: 6320 MFI | Kd [6]: 0.7 nM | koff [6]: 0.00026 s⁻¹ | kon [6]: 400000 M⁻¹ s⁻¹ | t1/2 [6]: 0.728 h | binding of the second injection (0 = no binding; 1 = binding) [7]: 1 | EC50 of activation of Jurkat-NFAT reporter cell line (luminescence) [8]: 0.09 nM | binding of the second injection (0 = no binding; 1 = binding) [9]: 1 | EC50 (read off the curve) [10]: ~2 nM | MFI (A488), IgG + ICOSL [11]: 6210 MFI | EC50 (read off the curve) [12]: ~2 nM | Relative Binding (%) [13]: 98.2% | EC50 [14]: 0.00216 nM | binding of the second injection (0 = no binding; 1 = binding) [15]: 1 | EC50 [16]: 0.00192 nM
B2: Molecule 18 (rbIgG of 1138) (antibody, V domains shown)
VH: QSLEESGGDLVKPGASLTLTCTASGFDLSSYYYMCWVRQAPGKGLEWIACIYADIYGGTTHYASWAKGRFTISKTSSTTVTLQMTSLTAADTATYFCAREDGSRYGGSGYYNLWGPGTLVTVSS
VL: ALVMTQTPSSVSAAVGGTVTINCQASQNIYSNLAWYQQKPGQPPKLLIYAASYLTSGVSSRFKGSGAGTQFTLTISGVECADAATYYCQQGHTTDNIDNAFGGGTEVVVKG
notes: Rabbit IgG format; also called ICOS (1138); clone 1138

binding of the second injection (0 = no binding; 1 = binding) [17]: 1 | MFI (A488), IgG only [5]: 7190 MFI | EC50 of activation of Jurkat-NFAT reporter cell line (luminescence) [8]: 0.08 nM | binding of the second injection (0 = no binding; 1 = binding) [9]: 0 | EC50 (read off the curve) [10]: ~3 nM | MFI (A488), IgG + ICOSL [11]: 7000 MFI | EC50 (read off the curve) [12]: ~1 nM | Relative Binding (%) [13]: 97.3% | EC50 [14]: 0.0014 nM | Kd [18]: 2 nM | koff [18]: 0.00014 s⁻¹ | kon [18]: 61000 M⁻¹ s⁻¹ | t1/2 [18]: 1.36 h | binding of the second injection (0 = no binding; 1 = binding) [15]: 0 | EC50 [16]: 0.00297 nM
B3: Molecule 14 (muIgG of 009) (antibody, V domains shown)
VH: EVRLDETGGGVVQPGRPMELSCVASGFTFSDYWMNWVRQSPEKGLEWVAQIRNKPYNYETYYSDSVKGRFTISRDDSKSRVYLQMNNLRAEDMGIYYCTWPRLRSSDWHFDVWGAGTTVTVSS
VL: AIQMTQSPSSLSASLGGEVTITCKASQDINKNIAWYQHKPGRGPRLLIWYTSTLQTGIPSRFSGSGSGRDYSFTISNLEPEDFATYYCLQFDNLYTFGSGTKLEIR
notes: Mouse IgG purified from hybridoma; also called ICOS (009); clone 009
